Drawing on article PMC2810501, this text covers Kd for one substance.

The test addresses specific saturable binding sites for S100A8/A9 on cell membranes of blood MDSC (carboxylated N-glycan receptors). Put plainly: radioligand binding.

By Kd is commonly meant a measure of binding affinity in units of concentration.

“S100A8/A9 heterodimer, purified, Na125I-labeled (from UniProt P27005 1-89; P31725 1-113) (complex)” showed a dissociation constant Kd of 37.4 nM.
